# According to the supplement of paper PMC7877785:
# ± gives the uncertainty stated by the source.
# Experiment: self-splicing fitness, log relative to wild type (ln ratio); higher = more splicing; Tetrahymena group I intron in knt gene, E. coli kanamycin selection, DiMSum; sequences stand for … in CUCUCU…GGAGGGAAAAGUUAUCAGGCAUGCACCUGGUAGCUAGUCUUUAAACCAAUAGAUUGCAUCGGUUUAAAAGGCAAGACCGUCAAAUUGCGGGAAAGGGGUCAACAGCCGUUCAGUACCAAGUCUCAGGGGAAACUUUGAGAUGGCCUUGCAAAGGGUAUGGUAAUAAGCUGACGGACAUGGUCCUAACCACGCAGCCAAGUCCUAAGUCAACAGAUCUUCUGUUGAUAUGGAUGCAGUUCACAGACUAAAUGUCGGUCGGGGAAGAUGUAUUCUUCUCAUAAGAUAUAGUCGGACCUCUCCUUAAUGGGAGCUAGCGGAUGAAGUGAUGCAACACUGGAGCCGCUGGGAACUAAUUUGUAUGCGAAAGUAUAUUGAUUAGUUUUGGAGUACUCGUGGUCG
# Summary of the method: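 Six replicate transformations of E. coli BL21(DE3) with a pET-22b(+) library were grown overnight at 37°C or 30°C. The library randomised all eight P1ex-region intron nucleotides, the intron lying in the knt kanamycin-resistance gene, and plates were LB agar with or without 25 μg/mL kanamycin plus 100 μg/mL carbenicillin, 50 μM IPTG and 0.2% rhamnose. Pooled colonies were amplicon-sequenced on an Illumina HiSeq 2500, and fitness is the DiMSum error-weighted combination of wild-type-normalised replicate fold changes, kanamycin versus none.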
Sequence,self-splicing fitness (ln) (30 °C),self-splicing fitness (ln) (37 °C)
CUCUAGCAAUAUUACGGUGU,-3 ± 0.19,-2.63 ± 0.3
CUCUAGCAAUAUUACGGUUG,-1.83 ± 0.12,-0.869 ± 0.14
CUCUAGCAAUAUUACGUAAA,-3.71 ± 0.35,-0.971 ± 0.17
CUCUAGCAAUAUUACGUCAC,-2.66 ± 0.19,–
CUCUAGCAAUAUUACGUGGG,-4.79 ± 0.29,-2.73 ± 0.18
CUCUAGCAAUAUUACGUUAG,-3.81 ± 0.24,-2.13 ± 0.22
CUCUAGCAAUAUUACGUUUU,-4.1 ± 0.22,-3.15 ± 0.16
CUGAAGCAAUAUUACGAAAA,-4.17 ± 0.25,-2.59 ± 0.22
CUGAAGCAAUAUUACGAGGA,-3.46 ± 0.17,-1.95 ± 0.2
CUGAAGCAAUAUUACGCAAA,-4.27 ± 0.42,–
CUGAAGCAAUAUUACGCAUU,-2.24 ± 0.12,-2.45 ± 0.17
CUGAAGCAAUAUUACGCUAU,-3.68 ± 0.16,-2.04 ± 0.14
CUGAAGCAAUAUUACGCUCA,-3.73 ± 0.37,-0.356 ± 0.22
CUGAAGCAAUAUUACGCUGG,-3.37 ± 0.33,-2.3 ± 0.34
CUGAAGCAAUAUUACGGACU,-2.85 ± 0.22,-0.495 ± 0.17
CUGAAGCAAUAUUACGGAGG,-3.67 ± 0.21,-1.81 ± 0.24
CUGAAGCAAUAUUACGGCAA,-3.04 ± 0.2,-1.21 ± 0.2
CUGAAGCAAUAUUACGGCAG,-0.522 ± 0.11,-0.657 ± 0.14
CUGAAGCAAUAUUACGGCGG,-0.674 ± 0.073,-0.503 ± 0.1
CUGAAGCAAUAUUACGGGAA,-2.05 ± 0.18,–
CUGAAGCAAUAUUACGGGAG,-0.441 ± 0.067,-0.168 ± 0.078
CUGAAGCAAUAUUACGGUAU,-3.66 ± 0.26,-2.54 ± 0.28

Sequence,self-splicing fitness (ln) (30 °C),self-splicing fitness (ln) (37 °C)
CUGAAGCAAUAUUACGGUCA,-1.38 ± 0.096,-0.796 ± 0.13
CUGAAGCAAUAUUACGGUGC,-2.89 ± 0.25,–
CUGAAGCAAUAUUACGGUGG,-1.02 ± 0.065,-0.466 ± 0.094
CUGAAGCAAUAUUACGUAUC,-3.82 ± 0.23,-1.78 ± 0.23
CUGAAGCAAUAUUACGUCUC,–,-1.47 ± 0.18
CUGAAGCAAUAUUACGUGAA,-2.91 ± 0.23,-1.93 ± 0.26
CUGCAGCAAUAUUACGAAGU,-4.26 ± 0.34,–
CUGCAGCAAUAUUACGAAUU,-3.62 ± 0.22,-3.18 ± 0.43
CUGCAGCAAUAUUACGACAG,-2.43 ± 0.13,-1.56 ± 0.18
CUGCAGCAAUAUUACGACGA,-1.85 ± 0.18,-1.16 ± 0.17
CUGCAGCAAUAUUACGACUG,-2.56 ± 0.16,-1.74 ± 0.2
CUGCAGCAAUAUUACGAGGU,-3.65 ± 0.14,-3.53 ± 0.2
CUGCAGCAAUAUUACGAGUA,-2.85 ± 0.23,-2.97 ± 0.28
CUGCAGCAAUAUUACGAUAA,-3.39 ± 0.28,-3.1 ± 0.28
CUGCAGCAAUAUUACGCAGU,-1.6 ± 0.14,-3.15 ± 0.35
CUGCAGCAAUAUUACGCCUG,-2.21 ± 0.28,-1.14 ± 0.28
CUGCAGCAAUAUUACGCGAU,-1.12 ± 0.09,-0.167 ± 0.12
CUGCAGCAAUAUUACGCGUA,-1.22 ± 0.23,-1.53 ± 0.22
CUGCAGCAAUAUUACGGAAC,-3.88 ± 0.27,-1.81 ± 0.27
CUGCAGCAAUAUUACGGCAA,-0.665 ± 0.094,0.202 ± 0.088
CUGCAGCAAUAUUACGGUAC,-4.59 ± 0.24,-1.81 ± 0.21
CUGCAGCAAUAUUACGGUCG,-0.487 ± 0.077,0.0459 ± 0.09
